Experimental data: the supplement of paper PMC12636428

Tested on: Saccharomyces cerevisiae
Assay: transcriptional activation domain activity (GFP:mCherry ratio, weighted mean of sorted bins, harmonized to initial dataset scale) (arbitrary fluorescence ratio units); higher = stronger transcriptional activation
Conditions: beta-estradiol 1 µM; induction time 4 h
Method in brief: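 Values are activation activity, found as the read-weighted mean of bin median fluorescence, averaged across barcodes and then mapped linearly onto the initial dataset scale. Barcoded protein tiles fused to an estradiol-inducible synthetic transcription factor were integrated at the URA3 locus of GFP-reporter yeast diploids. Cells were induced for 4 hours at 30 °C with 1 uM beta-estradiol in SC, sorted into 8 bins by GFP:mCherry ratio, and barcode-sequenced, with tiles under 50 reads discarded.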

Sequence	transcriptional activation domain activity
VLTLTFNDGKKHEDLSKQLLFVIHDIFSCDQNSPGYVLLRLLRSFLVLDVYMS	65000
GRRHCNYVQGWLWLSLFSYVCVTYVLSIYISMSFFFWNIAVFLFYFIFVGLLG	40500
RAARARATPARPRPRASASRARGACRASTRGCRRRRSSSSSSRAGARMRATSA	58600
GGGGGVGGEKGEEGGGEEEEDEEEEEEEGEEDEEEEGGGAAAKEKGKGKGKGK	8640
MSSSEPLTEQTAALSVAEGDADGNVPIGPDGKPLSKSAIKKLQKEKEKAEKAA	39500
GVMIVRKRLLIAIATVYGSPDRGLRRIIQSIGKVLWRHGLLSDQFYSAGEIFS	69800
LVVVLAVTKVMLLVLLIISYQILKQLLGIYFKCIHFLIYFFMLPYYGTLLSIL	47500
MHYRSAILCHSFILYCLVVVLGVFFKVILVLIYNRVCVPLIVLCLFSYSLSLV	59100
VAVAREPFQEGADASGKLYNKDSLDDEDSRKYVVILNAFLQMLAALDELVLVL	76700
TAIVTVISTVMAIATVTATGIMSIIDTMSTTAIITAIAMDMVTESIMVITAIT	87500
LVLVAILGIVIPLDGFFGYLLTSLAIIWCSYSSSSMFTVVGRMSSMKWLVAYP	57000
HCIEAGIKLVSQFIDMYKEFSPGGKLCQVCWMLTNFSMNDFLLGVMVLCLVIH	56200
ALILIFSQLTFTPYALESRNLHVAVRIFRVLIDLLEQAKSGKIRLTILQFLMR	71100
MYDFFLFLSFLPFPSPSLLCFLILFSFIYLLLFHFYIYIYICLFLSFYIHAFV	10600
MINKKTNPCKILFDPFSSFLFGNLILLSLFLFVDVIFSLPCFLYVCFVFFPSL	69200
KKRRKKAKEGAERGKKKRKHTDDGAGVADGVDQRDSQRESDESSADEDGNSGK	38300
RTSRHLTLLFWSPLLFFSILLLLPIFLPLFLRFLLLWFPILLLLPLLCFLLLW	13000

Sequence	transcriptional activation domain activity
MSFLLCGFCITFFFRFFLLSLFWMIRREQGICVSRLMFFFSFFFLSFNIIIFA	52300
SSRKEDKSERRHRHRHRSRSRDRDQRHRRHHRSDSRERNQDGDGERRRRHRRS	26700
RTTSLGVWFLLIQSLWYCAFGVLYVWFFCQTFESFNTLLVLDYILRFILCLMF	86900
MSLPIHRLLSYTCSIIYLLVHHLYFVFSFFIPVYFIQAQFFFAAFPFILFFIC	66900
LRLAVKNMSEDLPPLVPDIVNLVKRLKWSKAACCYYVLVSNALSLVVFLIDTY	54900
MKSVVFCFLPLFFFCHSSKANHSSTFISMPPFFSLFFFFFPFSHFPTLSVLFG	50600
GGLWNLVMWHWMLSFLAGICCFFLQILTYIWLQESSVIRISTSCLAGFWILPL	91700
MCVHVCLMFCSLLLSLSPFFFFHDLFLFLYTFSFSLSCFTPSYFSMFSSIPSS	76200
MRKVLANVPGPGGTWGLGFISGVLLVNPKRLLGYLLRCWSTHHGKLARCLWPI	47600
AALLHLIILISFGNLLLVPKCCLLVHTLRFWCRVFFLNPSLVLSFALSTFIYS	58900
HKWIIPTPFASHAFHPVDGYLQSVPYHLFVFIFPLHRILYLVLFVLINFWTIF	62300
ESSLSDKAEPKKEDSGKMAEAPKPAPEPKKEPKKEESKPAAKQESKKEVEEKA	35200
MDPEQATDAKPPKPPVVRGARACTVCRAAKMKCVGAEDGQKPCQRCKRANVEC	53000
LLKGLTLRNPAILKLEEDEDEAALLTQYAVKCSEVDKFLLTYVILKLKLIKGK	33200
ASASASALPSSGFGATRGMKVRASVKKICEGCSSVKRRGRVFIICSKNQKHKQ	36400
EDEQPAAPADGRKKTVTKGADKAGLGGTPVRKNATTAGRGRKPATAKKGASQP	32300
FWFPNYIFGALSFFSWMSWIAPTNINLANITGSSTGLGLNPFSSFDWNVWTFN	51400
